Experimental data taken from the supplement of paper PMC11780869.

Test system: Bacillus subtilis
Assay: cleaved RNA product abundance (RNA/gDNA barcode ratio) relative to median wild-type variant (ratio to wild type); higher = more accumulation of the downstream cleavage product
Method in brief: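 Truncated aprE or tetM reporter mRNAs with barcoded RNase Y cleavage-site windows, mutagenized from oligos at a 9% error rate, sat in the B. subtilis chromosome. Cells grew in LB at 37°C from OD600 0.0003 to 0.3. Gel-selected cleaved RNA was reverse transcribed and its barcodes sequenced with those from genomic DNA, collapsing by UMI. Cleaved product abundance equals the RNA:gDNA barcode ratio per construct over the median construct with the unmutated site.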

[1] = experiment (reporter, strain, medium): exp 4a: truncated aprE reporter, strain BJT201 with 2% xylose (RNase J1 expressed), cleavage site: cggR-gapA (positions -7 to +36 mutated)
[2] = experiment (reporter, strain, medium): exp 2b: truncated aprE reporter, strain BJT200, cleavage site: cggR-gapA (positions -7 to +36 mutated)
[3] = experiment (reporter, strain, medium): exp 8a: truncated aprE reporter, strain BJT201 with 2% xylose (RNase J1 expressed), cleavage site: glnRA (positions -5 to +31 mutated)

Sequence | cleaved RNA product abundance [1] | cleaved RNA product abundance [2] | also measured
ACAGACGAAGGAGCCGCAAAGAAGTTATTAAGGGATGAAAAATCTCTCAATATAAATATCTCTCACTTATTTAAA | 0.506 |  | 
ACAGACGAAGGAGCCGCAAAGAAGTTATTAAGCGCTGAATAATCCCTCAATATAAATATCTCTCACTTATTTAAA | 0.0581 | 0.0756 | 
ACAGACGAAGGAGCCGCAAGGAAGTTATTAAGGGATGAATAATCCCTCAAAATAAATATCTCTCACTTATTTAAA | 0.314 |  | 
ACAGACGAAGGAGCCGCAAAGAAGTTATTAAGGGATCGATAATCCCTCAATATAAATATCTCTCACTTATTTAAA | 0.722 | 0.652 | 
ACAGACGAAGGAGCCGCAAAGAAGTTATTAAGGGATGAAAAATCCCTCAAGATAAATATCTCTCACTTATTTAAA | 0.314 | 0.159 | 
ACAGACGAAGGAGCCGCAAAGAAGTTATTAAGGGAAGAATAATCCCTCAATATATATATCTCTCACTTATTTAAA | 0.563 | 0.393 | 
ACAGACGAAGGAGCCGCAAAGATGTTATTAAGGGTTGAATAATCCCTCAATATAAATATCTCTCACTTATTTAAA |  | 0.251 | 
ACAGACGAAGGAGCCGCAAAGAAGTTTTTAAGGTATGAATAATCCCTCAATATAAATATCTCTCACTTATTTAAA | 0.098 |  | 
ACAGACGAAGGAGCCGCAAAGAAGTTACTAATGGATGAATAATCCCTCAATATAAATATCTCTCACTTATTTAAA | 0.172 | 0.112 | 
ACAGACGAAGGAGCCGCAAAGAAGTTACTAAGGGATGAATAATCCCTCATTATAAATATCTCTCACTTATTTAAA | 0.342 | 0.218 | 
CGACATGTCCCGCTTCTTTCATTAATCCGTTAGTAACTGTTTTGCTATATACATTTACGTTTTAAGAGGAGGAAT |  |  | cleaved RNA product abundance [3]: 0.581
ACAGACGAAGGAGCCGCAAAGAAGTTATTAAGGGAGAATAATCCCTCAATATAAATATCTCTCACTTATTTAAAG | 0.471 |  | 
ACAGACGAAGGAGCCGCAAAGAAGTTATTCAGGGATGAATAATCCCTCAATATAAATAACTCTCACTTATTTAAA |  | 0.615 | 
ACAGACGAAGGAGCCGCAAATAAGTTATTAAGGGATGAATAATCCCTCAACATAAATATCTCTCACTTATTTAAA | 0.401 |  | 
ACAGACGAAGGAGCCGCAAAGAAGTTATCTAGGGATGAATAATCCCTCAATATAAATATCTCTCACTTATTTAAA | 0.316 |  | 
CGACATGTCCCGCTTCTTTCATTAATCCGTTAGCAACTCTTTTGCTATATACATTTAACTTTTAAGAGGAGGAAT |  |  | cleaved RNA product abundance [3]: 1.36
ACAGACGAAGGAGCCGCAAAGATGTTATTAAGGGATGAATAATCCCACAATATAAATATCTCTCACTTATTTAAA | 0.248 | 0.227 | 
ACAGACGAAGGAGCCGCAAAGAAGTTATTAAGGGATGAATAAACCCTCCATATAAATATCTCTCACTTATTTAAA | 0.162 |  | 
CGACATGTCCCGCTTCTTTCATTAATCCGTTACCAACTTTTTTGCTATATACATTTACCTTTTAAGAGGAGGAAT |  |  | cleaved RNA product abundance [3]: 0.225
ACAGACGAAGGAGCCGCAAAGAAGTTATTAAGGGATTAATAATCCCTCAATATAAACATCTCTCACTTATTTAAA | 0.803 |  | 

Sequence | cleaved RNA product abundance [1] | cleaved RNA product abundance [2] | also measured
ACAGACGAAGGAGCCGCAAAGAAGTTATTAAGGGATGAATAATCCATGAATATAAATATCTCTCACTTATTTAAA | 0.18 |  | 
ACAGACGAAGGAGCCGCAAAGAAGCTATTAAGGGATGAATAATCCCTTAATATAAATATCTCTCACTTATTTAAA | 0.827 |  | 
CGACATGTCCCGCTTCTTTCATTAATCCGTTAGCAACTGTTTTGCTATATAGATTTACCTTTTAAGAGGAGGAAT |  |  | cleaved RNA product abundance [3]: 1.11
CGACATGTCCCGCTTCTTTCATTAATCCGTTAGCAACATTTTTGCTATATACATTTACCTTTTAAGAGGAGGAAT |  |  | cleaved RNA product abundance [3]: 1.12
ACAGACGAAGGAGCCGCAAAGAAGTTATTAAGGGATCAATAATCCCACAATATAAATATCTCTCACTTATTTAAA | 0.208 | 0.192 | 
ACAGACGAAGGAGCCGCAAAGAAGTTATTAAGGTATGAATAATCCCTCAATTTAAATATCTCTCACTTATTTAAA | 0.0555 | 0.0856 | 
ACAGACGAAGGAGCCGCAAAAAAGTTATTAAGGGATGAATAATCCCTCAATATGAATATCTCTCACTTATTTAAA |  | 0.135 | 
ACAGACGAAGGAGCCGCAAAGAAGTTATTAAAGGATGACTAATCCCTCAATATAAATATCTCTCACTTATTTAAA | 0.133 | 0.0975 | 
ACAGACGAAGGAGCCGCAAAGAAGTTATTATGGGACGAATAATCCCTCAATATAAATATCTCTCACTTATTTAAA | 0.174 |  | 
CGACATGTCCCGCTTCTTTCATTAATTCGTTAGCAACTGTTTTGCTAAATACATTTACCTTTTAAGAGGAGGAAT |  |  | cleaved RNA product abundance [3]: 0.362
ACAGACGAAGGAGCCGCAAAGAAGTTATTAAAGAATGAATAATCCCTCAATATAAATATCTCTCACTTATTTAAA | 0.114 | 0.0737 | 
ACAGACGAAGGAGCCGCAAAGAAGATATTAAGGGATGAATAATTCCTCAATATAAATATCTCTCACTTATTTAAA | 1.05 |  | 
CGACATGTCCCGCTTCTTTCATTAATCCGTTATCAACTGTTTTGCTATATTCATTTACCTTTTAAGAGGAGGAAT |  |  | cleaved RNA product abundance [3]: 0.246
CGACATGTCCCGCTTCTTTCATTAATCCGTTAGCAACTTTTGTGCTATATACATTTACCTTTTAAGAGGAGGAAT |  |  | cleaved RNA product abundance [3]: 1.05
ACAGACGAAGGAGCCGCAAAGAAGTTATTAAGGGACGAATAATCTCTCAATATAAATATCTCTCACTTATTTAAA |  | 0.139 | 
ACAGACGAAGGAGCCGCAAAGAAGTTATTAAGGGATGAATAATCCCTCAATATAAAGATCTCTCACTTATTTAAA | 0.627 | 0.666 | 
ACAGACGAAGGAGCCGCAAAGAAGTTATTAAGGGATTAATAATCCCTCATTATAAATATCTCTCACTTATTTAAA | 0.534 | 0.247 | 
ACAGACGAAGGAGCCGCAAAGAAGTTATTAAGGGATGAATAATCCATCATTATAAATATCTCTCACTTATTTAAA |  | 0.158 | 
ACAGACGAAGGAGCCGCAAACAAGTTATTAAGGGATGAATAATCCCTCATTATAAATATCTCTCACTTATTTAAA | 0.337 |  | 
CGACATGTCCCGCTTCTTTCATTAATCCGTAAGCAACTGTTTTGCTATATACATTTACTTTTTAAGAGGAGGAAT |  |  | cleaved RNA product abundance [3]: 0.641

Sequence | cleaved RNA product abundance [1] | cleaved RNA product abundance [2] | also measured
ACAGACGAAGGAGCCGCAAAGAATTTATTAAGGGATGAATAAACCCTCAATATAAATATCTCTCACTTATTTAAA | 0.292 | 0.322 | 
ACAGACGAAGGAGCCGCAAAGAAGTTATTAATGGATGAATAATCCCTCAATAAAAATATCTCTCACTTATTTAAA | 0.108 | 0.136 | 
ACAGACGAAGGAGCCGCATAGAAGTTATTAAGGGATGAATAATCCCCCAATATAAATATCTCTCACTTATTTAAA | 0.319 | 0.247 | 
CGACATGTCCCGCTTCTTTCATTAATTCGTTAGCAACTGTTTTGCTATTTACATTTACCTTTTAAGAGGAGGAAT |  |  | cleaved RNA product abundance [3]: 0.134
ACAGACGAAGGAGCCGCAAAGAAGTTATTAAGGGATGAATAATCCCTCAATATAAATATATCTCACTTATTTAAA | 1.02 | 0.976 | 
ACAGACGAAGGAGCCGCAAAGAAGTTATTAAGGGATGAATAATCTCTCAATATAAATAACTCTCACTTATTTAAA |  | 0.645 | 
ACAGACGAAGGAGCCGCAAAGAAGTTATTAAGAGATGAATAATCCCTCAATATAAAAATCTCTCACTTATTTAAA | 0.181 | 0.103 | 
ACAGACGAAGGAGCCGCTAAGAAGTTGTTAAGGGATGAATAATCCCTCAATATAAATATCTCTCACTTATTTAAA | 0.503 |  | 
ACAGACGAAGGAGCCGCAAAGAAGCTATTAAGGGATGAACAATCCCTCAATATAAATATCTCTCACTTATTTAAA | 0.568 |  | 
CGACATGTCCCGCTTCTTTCATTAATCCGTTAGCAACTGTTTTGCTATATAAATTAACCTTTTAAGAGGAGGAAT |  |  | cleaved RNA product abundance [3]: 1.01
CGACATGTCCCGCTTCTTTCATTAATCCATTAGAAACTGTTTTGCTATATAGATTTACCTTTTAAGAGGAGGAAT |  |  | cleaved RNA product abundance [3]: 0.302
ACAGACGAAGGAGCCGCAAAGAAGTTATTAAGAGATGAATAATGCCTCAATATAAATATCTCTCACTTATTTAAA | 0.1 |  | 
ACAGACGAAGGAGCCGCAAAGAAGTTATTAAGCGATGAATAATCCCTCAATATAAACATCTCTCACTTATTTAAA | 0.0627 | 0.0873 | 
ACAGACGAAGGAGCCGCAAAGAAGGTATTAAGGGATGAATAATCGCTCAATATAAATATCTCTCACTTATTTAAA |  | 0.176 | 
ACAGACGAAGGAGCCGCAAAGAACTTATTAAGGGATGAATAATACCTCAATATAAATATCTCTCACTTATTTAAA | 0.165 | 0.0995 | 
ACAGACGAAGGAGCCGCAAAGAATTTATTAAGGGATGAATAATCCCTCAATAAAAATATCTCTCACTTATTTAAA | 0.066 |  | 
ACAGACGAAGGAGCCGCAAAGAAGTTATTAAGGGATGAATAATCCCTCAATATAATTATCTCTCACTTATTTAAA | 0.491 | 0.673 | cleaved RNA product abundance (experiment (reporter, strain, medium): exp 6: tetM reporter, strain 168, cleavage site: cggR-gapA (positions -7 to +36 mutated)): 0.338
ACAGACGAAGGAGCCGCAAAGAAGTTATTAAGAGATGAATGATCCCTCAATATAAATATCTCTCACTTATTTAAA | 0.0837 |  | 
CGACATGTCCCGCTTCTTTCATTAATCCGATAGCAAATGTTTTGCTATATACATTTACCTTTTAAGAGGAGGAAT |  |  | cleaved RNA product abundance [3]: 0.41
